In PMC9645763, “CK2-mediated phosphorylation of SUZ12 promotes PRC2 function by stabilizing enzyme active site” (Nature Communications, 2022):

Target: T1, EZH1 of the truncated minimal complex used for crystallization (human, UniProt Q92800 1-187; Q92800 230-491; Q92800 497-747, residues 353–413 of EZH1 were deleted)
T1 construct: human EZH1, residues 1-187; linker that replaces residues 188–229 of EZH1; human EZH1, residues 230-491 with 353–413 deleted; linker that replaces residues 492–496 of EZH1; human EZH1, residues 497-747; In the crystal joined on one chain with m3 through an LVPRGS linker; source: S. cerevisiae CB010, purified (IgG-sepharose, TEV cleavage, Superdex 200); not shown: His6, N-terminal, …
T1 sequence (Q92800 other isoform, or with tags, fused parts or gaps with the stated changes): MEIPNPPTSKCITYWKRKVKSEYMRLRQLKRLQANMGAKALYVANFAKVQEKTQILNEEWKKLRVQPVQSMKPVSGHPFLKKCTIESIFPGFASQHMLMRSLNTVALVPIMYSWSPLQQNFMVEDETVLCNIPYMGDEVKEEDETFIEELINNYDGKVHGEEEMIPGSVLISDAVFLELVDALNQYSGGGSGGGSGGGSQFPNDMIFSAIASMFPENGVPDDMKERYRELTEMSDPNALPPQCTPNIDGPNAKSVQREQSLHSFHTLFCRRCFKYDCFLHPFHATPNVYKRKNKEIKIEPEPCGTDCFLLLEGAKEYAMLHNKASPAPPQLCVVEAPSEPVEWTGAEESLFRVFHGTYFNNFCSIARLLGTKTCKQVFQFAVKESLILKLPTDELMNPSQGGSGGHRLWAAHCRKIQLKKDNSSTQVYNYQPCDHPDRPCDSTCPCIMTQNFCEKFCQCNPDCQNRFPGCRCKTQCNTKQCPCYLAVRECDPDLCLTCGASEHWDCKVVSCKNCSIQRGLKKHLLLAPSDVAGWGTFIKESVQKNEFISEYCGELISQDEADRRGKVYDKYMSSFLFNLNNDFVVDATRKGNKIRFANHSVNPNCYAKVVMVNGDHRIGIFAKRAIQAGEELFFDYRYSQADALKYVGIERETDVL
Test: crystal structure; truncated minimal EZH1–EED–SUZ12(VEFS) complex at 10 mg/ml pre-incubated with 0.5 mM H3K27M peptide, 0.5 mM H3K27me3 peptide and 1 mM SAM; 10% PEG3350, 100 mM ammonium sulfate, 50 mM HEPES pH 6.8; 3.0 Å
Conditions: both partners purified

binding result: binds
B1: EED of the truncated minimal complex used for crystallization (domain or fragment)
chain: not shown
notes: human EED, residues 1–77 replaced by a StrepII tag; source: S. cerevisiae CB010, co-expressed, purified with the complex (IgG-sepharose, TEV cleavage, Superdex 200); not shown: StrepII, N-terminal, kept
